Data as given in US20230050038A1 (WASHINGTON UNIVERSITY, published 2023).
Changes are numbered by the printed parent chain.

Tests used:
[1] = molecular target: T1, PDGFRβ soluble extracellular domain (UniProt P09619 33-532, limits assumed, fluorescently labeled); experiment: combinatorial yeast display library enriched by FACS for high binding signal to PDGFRβ ectodomain
T1 construct: extracellular domain; also called PDGFRβ ectodomain; soluble PDGFRβ

[2] = molecular target: T1, PDGFRβ soluble extracellular domain; experiment: yeast surface display, flow cytometry with soluble PDGFRβ

T1 sequence (P09619 33-532 limits assumed): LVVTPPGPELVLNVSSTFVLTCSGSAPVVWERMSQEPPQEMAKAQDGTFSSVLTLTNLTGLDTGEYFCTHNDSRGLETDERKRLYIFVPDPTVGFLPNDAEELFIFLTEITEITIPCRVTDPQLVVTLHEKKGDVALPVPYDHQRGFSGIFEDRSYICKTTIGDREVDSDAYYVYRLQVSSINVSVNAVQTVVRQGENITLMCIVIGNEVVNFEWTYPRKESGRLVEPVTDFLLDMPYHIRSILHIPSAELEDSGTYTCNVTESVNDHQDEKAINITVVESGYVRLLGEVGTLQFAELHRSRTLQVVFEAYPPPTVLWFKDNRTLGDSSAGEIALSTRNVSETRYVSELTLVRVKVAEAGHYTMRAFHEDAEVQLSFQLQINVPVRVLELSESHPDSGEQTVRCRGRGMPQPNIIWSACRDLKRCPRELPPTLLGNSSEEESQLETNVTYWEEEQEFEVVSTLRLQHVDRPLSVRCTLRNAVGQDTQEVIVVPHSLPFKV

B1: Clone-01, PDGF-B variant displayed on the yeast surface (ligand)
chain: SLGSLTIAEPAMIAECKTRTELFRISRNLIDRTNANFLVWPPCVEVQRCSGCCNNRYVQCRPTQVQLRPVQVRKIEFVRKKPIFKKATVTLEDHLACRCETVAA
notes: not shown: Aga2p fusion partner, glycine-rich linkers and c-myc tag
binding result [1]: binds

B2: Clone-08, PDGF-B variant displayed on the yeast surface (ligand)
chain: B1 chain with F77I
notes: as for B1
binding result [1]: binds

B3: Clone-07, PDGF-B variant displayed on the yeast surface (ligand)
chain: B1 chain with L22V, R24E, Y57N, R98K
notes: as for B1
binding result [1]: binds

B4: Clone-02, PDGF-B variant displayed on the yeast surface (ligand)
chain: B1 chain with K17N, L22V, Y57N, T101K
notes: as for B1
binding result [1]: binds

B5: Clone-03, PDGF-B variant displayed on the yeast surface (ligand)
chain: B1 chain with R98K, T101K
notes: as for B1
binding result [1]: binds

B6: PDGF-B-cons (consensus sequence), displayed on the yeast surface (ligand)
chain: B1 chain with L22V
notes: Consensus of the isolated clones, tested on the yeast surface; also called PDGF-BB-cons; not shown: Aga2p fusion partner, glycine-rich linkers and c-myc tag
binding result [2]: binds
